Assay results published in patent EP0571387B1.

Molecular target: c-met protooncogene product (HGF receptor) on B5/589 human mammary epithelial cells (human) (UniProt P08581)
Assay: cell-based or functional assay

Sequence of UniProt P08581 (P08581 25-1390): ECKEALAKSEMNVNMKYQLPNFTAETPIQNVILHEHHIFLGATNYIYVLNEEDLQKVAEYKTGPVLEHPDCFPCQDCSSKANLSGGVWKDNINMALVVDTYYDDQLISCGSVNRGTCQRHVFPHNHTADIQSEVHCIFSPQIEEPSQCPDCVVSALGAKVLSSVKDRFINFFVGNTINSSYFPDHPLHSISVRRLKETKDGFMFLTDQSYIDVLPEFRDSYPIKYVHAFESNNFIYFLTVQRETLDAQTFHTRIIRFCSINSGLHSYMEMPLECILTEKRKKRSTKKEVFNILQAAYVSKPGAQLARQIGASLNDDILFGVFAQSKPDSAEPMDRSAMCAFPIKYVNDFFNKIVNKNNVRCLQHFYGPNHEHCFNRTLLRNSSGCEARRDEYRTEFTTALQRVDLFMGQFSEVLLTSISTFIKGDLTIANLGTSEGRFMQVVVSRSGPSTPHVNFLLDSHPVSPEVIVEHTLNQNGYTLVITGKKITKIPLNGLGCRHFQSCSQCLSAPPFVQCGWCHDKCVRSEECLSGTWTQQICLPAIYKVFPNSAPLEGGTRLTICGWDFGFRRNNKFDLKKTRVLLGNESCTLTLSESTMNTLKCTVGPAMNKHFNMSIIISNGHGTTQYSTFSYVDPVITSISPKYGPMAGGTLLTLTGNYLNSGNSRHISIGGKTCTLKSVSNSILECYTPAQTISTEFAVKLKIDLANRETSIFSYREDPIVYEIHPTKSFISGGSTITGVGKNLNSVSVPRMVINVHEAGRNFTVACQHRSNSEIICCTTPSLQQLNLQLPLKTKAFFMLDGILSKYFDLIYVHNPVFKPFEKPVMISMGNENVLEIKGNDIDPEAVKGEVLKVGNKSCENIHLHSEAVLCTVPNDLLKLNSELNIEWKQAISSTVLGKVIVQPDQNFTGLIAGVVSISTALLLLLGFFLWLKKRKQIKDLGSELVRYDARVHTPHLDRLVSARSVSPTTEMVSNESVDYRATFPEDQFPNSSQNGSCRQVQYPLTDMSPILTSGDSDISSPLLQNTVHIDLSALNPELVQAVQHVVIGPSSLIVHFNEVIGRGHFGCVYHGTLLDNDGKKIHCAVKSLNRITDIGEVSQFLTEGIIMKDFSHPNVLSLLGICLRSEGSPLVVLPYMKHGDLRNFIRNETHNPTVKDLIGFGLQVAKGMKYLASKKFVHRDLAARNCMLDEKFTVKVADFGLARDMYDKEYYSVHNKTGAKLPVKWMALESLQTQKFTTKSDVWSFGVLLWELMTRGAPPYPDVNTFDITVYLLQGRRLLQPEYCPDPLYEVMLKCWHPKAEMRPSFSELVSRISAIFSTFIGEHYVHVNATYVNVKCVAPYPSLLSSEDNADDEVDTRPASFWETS

- inhibition of HGF-induced [3H]-thymidine incorporation in B5/589 cells (fold molar excess over HGF): 10 to 20
Substance: HGF/NK2 (34 kd truncated HGF variant, naturally occurring, purified from conditioned medium of SK-LMS-1 cells) (ligand)
